In the supplement of paper PMC5998384:

Tests used:
[1] = tested on: HeLa Kyoto; assay: thermal stability score vs G1/S (z-score of summed log2 fold changes over temperatures); higher = more thermally stable than in G1/S
[2] = tested on: HeLa Kyoto; assay: solubility change mitosis vs G1/S (difference of NP-40 vs SDS log2 ratios) (log2 ratio difference); higher = more soluble in mitosis
[3] = tested on: HeLa Kyoto; assay: solubility in G1/S (NP-40 vs SDS abundance) (log2 ratio); higher = more soluble; settings: cell cycle stage: G1/S
[4] = tested on: HeLa Kyoto; assay: melting temperature (median over replicates), in situ; higher = more thermally stable
[5] = cell cycle stage: early G1 (4.5 h after nocodazole release)
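Throughout, for melting temperature (median over replicates), in situ: HeLa Kyoto cells synchronized by double thymidine or nocodazole block, proteins quantified by TMT10plex mass spectrometry, three independent biological replicates.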
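Throughout, for solubility change mitosis vs G1/S (difference of NP-40 vs SDS log2 ratios): synchronized HeLa Kyoto cells (double thymidine block for G1/S, nocodazole release for mitosis), protein amounts in NP-40 versus SDS lysates quantified by mass spectrometry, three biological replicates.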
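Throughout, for solubility in G1/S (NP-40 vs SDS abundance): HeLa Kyoto cells arrested at G1/S by double thymidine block, proteins quantified by TMT10plex mass spectrometry in mild NP-40 versus SDS extracts, three biological replicates.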
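Throughout, for thermal stability score vs G1/S (z-score of summed log2 fold changes over temperatures): synchronized HeLa Kyoto cells, proteins quantified by TMT10plex mass spectrometry, three biological replicates, mitosis taken 0.5 h after nocodazole release, G1/S directly after double thymidine block.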

Row | Sequence | thermal stability score [1, 5] | thermal stability score ([1]; cell cycle stage: mitosis) | solubility change mitosis (log2) [2] | solubility in G1/S (log2) [3] | melting temperature ([4]; cell cycle stage: G1/S) [°C] | melting temperature ([4]; cell cycle stage: mitosis) [°C]
1 | MVEPGQDLLLAALSESGISPNDLFDIDGGDAGLATPMPTPSVQQSVPLSALELGLETEAAVPVKQEPETVPTPALLNVRQQPPSTTTFVLNQINHLPPLGSTIVMTKTPPVTTNRQTITLTKFIQTTASTRPSVSAPTVRNAMTSAPSKDQVQLKDLLKNNSLNELMKLKPPANIAQPVATAATDVSNGTVKKESSNKEGARMWINDMKMRSFSPTMKVPVVKEDDEPEEEDEEEMGHAETYAEYMPIKLKIGLRHPDAVVETSSLSSVTPPDVWYKTSISEETIDNGWLSALQLEAITYAAQQHETFLPNGDRAGFLIGDGAGVGKGRTIAGIIYENYLLSRKRALWFSVSNDLKYDAERDLRDIGAKNILVHSLNKFKYGKISSKHNGSVKKGVIFATYSSLIGESQSGGKYKTRLKQLLHWCGDDFDGVIVFDECHKAKNLCPVGSSKPTKTGLAVLELQNKLPKARVVYASATGASEPRNMAYMNRLGIWGEGTPFREFSDFIQAVERRGVGAMEIVAMDMKLRGMYIARQLSFTGVTFKIEEVLLSQSYVKMYNKAVKLWVIARERFQQAADLIDAEQRMKKSMWGQFWSAHQRFFKYLCIASKVKRVVQLAREEIKNGKCVVIGLQSTGEARTLEALEEGGGELNDFVSTAKGVLQSLIEKHFPAPDRKKLYSLLGIDLTAPSNNSSPRDSPCKENKIKKRKGEEITREAKKARKVGGLTGSSSDDSGSESDASDNEESDYESSKNMSSGDDDDFNPFLDESNEDDENDPWLIRKDHKKNKEKKKKKSIDPDSIQSALLASGLGSKRPSFSSTPVISPAPNSTPANSNTNSNSSLITSQDAVERAQQMKKDLLDKLEKLAEDLPPNTLDELIDELGGPENVAEMTGRKGRVVSNDDGSISYESRSELDVPVEILNITEKQRFMDGDKNIAIISEAASSGISLQADRRAKNQRRRVHMTLELPWSADRAIQQFGRTHRSNQVTAPEYVFLISELAGEQRFASIVAKRLESLGALTHGDRRATESRDLSRFNFDNKYGRNALEIVMKSIVNLDSPMVSPPPDYPGEFFKDVRQGLIGVGLINVEDRSGILTLDKDYNNIGKFLNRILGMEVHQQNALFQYFADTLTAVVQNAKKNGRYDMGILDLGSGDEKVRKSDVKKFLTPGYSTSGHVELYTISVERGMSWEEATKIWAELTGPDDGFYLSLQIRNNKKTAILVKEVNPKKKLFLVYRPNTGKQLKLEIYADLKKKYKKVVSDDALMHWLDQYNSSADTCTHAYWRGNCKKASLGLVCEIGLRCRTYYVLCGSVLSVWTKVEGVLASVSGTNVKMQIVRLRTEDGQRIVGLIIPANCVSPLVNLLSTSDQSQQLAVQQKQLWQQHHPQSITNLSNA [SBNO1] | 1.19 | 2.1 | -0.158 | 0.0971 | 50.9 | 51.4
2 | MVGQMYCYPGSHLARALTRALALALVLALLVGPFLSGLAGAIPAPGGRWARDGQVPPASRSRSVLLDVSAGQLLMVDGRHPDAVAWANLTNAIRETGWAFLELGTSGQYNDSLQAYAAGVVEAAVSEELIYMHWMNTVVNYCGPFEYEVGYCERLKSFLEANLEWMQEEMESNPDSPYWHQVRLTLLQLKGLEDSYEGRVSFPAGKFTIKPLGFLLLQLSGDLEDLELALNKTKIKPSLGSGSCSALIKLLPGQSDLLVAHNTWNNYQHMLRVIKKYWLQFREGPWGDYPLVPGNKLVFSSYPGTIFSCDDFYILGSGLVTLETTIGNKNPALWKYVRPRGCVLEWVRNIVANRLASDGATWADIFKRFNSGTYNNQWMIVDYKAFIPGGPSPGSRVLTILEQIPGMVVVADKTSELYQKTYWASYNIPSFETVFNASGLQALVAQYGDWFSYDGSPRAQIFRRNQSLVQDMDSMVRLMRYNDFLHDPLSLCKACNPQPNGENAISARSDLNPANGSYPFQALRQRSHGGIDVKVTSMSLARILSLLAASGPTWDQVPPFQWSTSPFSGLLHMGQPDLWKFAPVKVSWD [PLBD2] | -1.75 | -1.5 | -0.0289 | 0.298 | 56.6 | 55.9
3 | MVGSALRRGAHAYVYLVSKASHISRGHQHQAWGSRPPAAECATQRAPGSVVELLGKSYPQDDHSNLTRKVLTRVGRNLHNQQHHPLWLIKERVKEHFYKQYVGRFGTPLFSVYDNLSPVVTTWQNFDSLLIPADHPSRKKGDNYYLNRTHMLRAHTSAHQWDLLHAGLDAFLVVGDVYRRDQIDSQHYPIFHQLEAVRLFSKHELFAGIKDGESLQLFEQSSRSAHKQETHTMEAVKLVEFDLKQTLTRLMAHLFGDELEIRWVDCYFPFTHPSFEMEINFHGEWLEVLGCGVMEQQLVNSAGAQDRIGWAFGLGLERLAMILYDIPDIRLFWCEDERFLKQFCVSNINQKVKFQPLSKYPAVINDISFWLPSENYAENDFYDLVRTIGGDLVEKVDLIDKFVHPKTHKTSHCYRITYRHMERTLSQREVRHIHQALQEAAVQLLGVEGRF [FARS2] | 0.911 | 1.74 | -0.0528 | -0.187 | 49.7 | 49.5
4 | MVHIKKGELTQEEKELLEVIGKGTVQEAGTLLSSKNVRVNCLDENGMTPLMHAAYKGKLDMCKLLLRHGADVNCHQHEHGYTALMFAALSGNKDITWVMLEAGAETDVVNSVGRTAAQMAAFVGQHDCVTIINNFFPRERLDYYTKPQGLDKEPKLPPKLAGPLHKIITTTNLHPVKIVMLVNENPLLTEEAALNKCYRVMDLICEKCMKQRDMNEVLAMKMHYISCIFQKCINFLKDGENKLDTLIKSLLKGRASDGFPVYQEKIIRESIRKFPYCEATLLQQLVRSIAPVEIGSDPTAFSVLTQAITGQVGFVDVEFCTTCGEKGASKRCSVCKMVIYCDQTCQKTHWFTHKKICKNLKDIYEKQQLEAAKEKRQEENHGKLDVNSNCVNEEQPEAEVGISQKDSNPEDSGEGKKESLESEAELEGLQDAPAGPQVSEE [ANKMY2] | -0.173 | -0.528 | -0.16 | 0.124 | 50.1 | 
5 | MVKEQFRETDVAKKISHICFGMKSPEEMRQQAHIQVVSKNLYSQDNQHAPLLYGVLDHRMGTSEKDRPCETCGKNLADCLGHYGYIDLELPCFHVGYFRAVIGILQMICKTCCHIMLSQEEKKQFLDYLKRPGLTYLQKRGLKKKISDKCRKKNICHHCGAFNGTVKKCGLLKIIHEKYKTNKKVVDPIVSNFLQSFETAIEHNKEVEPLLGRAQENLNPLVVLNLFKRIPAEDVPLLLMNPEAGKPSDLILTRLLVPPLCIRPSVVSDLKSGTNEDDLTMKLTEIIFLNDVIKKHRISGAKTQMIMEDWDFLQLQCALYINSELSGIPLNMAPKKWTRGFVQRLKGKQGRFRGNLSGKRVDFSGRTVISPDPNLRIDEVAVPVHVAKILTFPEKVNKANINFLRKLVQNGPEVHPGANFIQQRHTQMKRFLKYGNREKMAQELKYGDIVERHLIDGDVVLFNRQPSLHKLSIMAHLARVKPHRTFRFNECVCTPYNADFDGDEMNLHLPQTEEAKAEALVLMGTKANLVTPRNGEPLIAAIQDFLTGAYLLTLKDTFFDRAKACQIIASILVGKDEKIKVRLPPPTILKPVTLWTGKQIFSVILRPSDDNPVRANLRTKGKQYCGKGEDLCANDSYVTIQNSELMSGSMDKGTLGSGSKNNIFYILLRDWGQNEAADAMSRLARLAPVYLSNRGFSIGIGDVTPGQGLLKAKYELLNAGYKKCDEYIEALNTGKLQQQPGCTAEETLEALILKELSVIRDHAGSACLRELDKSNSPLTMALCGSKGSFINISQMIACVGQQAISGSRVPDGFENRSLPHFEKHSKLPAAKGFVANSFYSGLTPTEFFFHTMAGREGLVDTAVKTAETGYMQRRLVKSLEDLCSQYDLTVRSSTGDIIQFIYGGDGLDPAAMEGKDEPLEFKRVLDNIKAVFPCPSEPALSKNELILTTESIMKKSEFLCCQDSFLQEIKKFIKGVSEKIKKTRDKYGINDNGTTEPRVLYQLDRITPTQVEKFLETCRDKYMRAQMEPGSAVGALCAQSIGEPGTQMTLKTFHFAGVASMNITLGVPRIKEIINASKAISTPIITAQLDKDDDADYARLVKGRIEKTLLGEISEYIEEVFLPDDCFILVKLSLERIRLLRLEVNAETVRYSICTSKLRVKPGDVAVHGEAVVCVTPRENSKSSMYYVLQFLKEDLPKVVVQGIPEVSRAVIHIDEQSGKEKYKLLVEGDNLRAVMATHGVKGTRTTSNNTYEVEKTLGIEAARTTIINEIQYTMVNHGMSIDRRHVMLLSDLMTYKGEVLGITRFGLAKMKESVLMLASFEKTADHLFDAAYFGQKDSVCGVSECIIMGIPMNIGTGLFKLLHKADRDPNPPKRPLIFDTNEFHIPLVT [POLR3A] | 0.905 | 2.38 | -0.101 | -0.268 | 49.1 | 49.9
6 | MVKIVTVKTQAYQDQKPGTSGLRKRVKVFQSSANYAENFIQSIISTVEPAQRQEATLVVGGDGRFYMKEAIQLIARIAAANGIGRLVIGQNGILSTPAVSCIIRKIKAIGGIILTASHNPGGPNGDFGIKFNISNGGPAPEAITDKIFQISKTIEEYAVCPDLKVDLGVLGKQQFDLENKFKPFTVEIVDSVEAYATMLRSIFDFSALKELLSGPNRLKIRIDAMHGVVGPYVKKILCEELGAPANSAVNCVPLEDFGGHHPDPNLTYAADLVETMKSGEHDFGAAFDGDGDRNMILGKHGFFVNPSDSVAVIAANIFSIPYFQQTGVRGFARSMPTSGALDRVASATKIALYETPTGWKFFGNLMDASKLSLCGEESFGTGSDHIREKDGLWAVLAWLSILATRKQSVEDILKDHWQKYGRNFFTRYDYEEVEAEGANKMMKDLEALMFDRSFVGKQFSANDKVYTVEKADNFEYSDPVDGSISRNQGLRLIFTDGSRIVFRLSGTGSAGATIRLYIDSYEKDVAKINQDPQVMLAPLISIALKVSQLQERTGRTAPTVIT [PGM1] | -0.26 | 0.494 | -0.0698 | 0.266 | 57.6 | 58.3
7 | MVLESTMVCVDNSEYMRNGDFLPTRLQAQQDAVNIVCHSKTRSNPENNVGLITLANDCEVLTTLTPDTGRILSKLHTVQPKGKITFCTGIRVAHLALKHRQGKNHKMRIIAFVGSPVEDNEKDLVKLAKRLKKEKVNVDIINFGEEEVNTEKLTAFVNTLNGKDGTGSHLVTVPPGPSLADALISSPILAGEGGAMLGLGASDFEFGVDPSADPELALALRVSMEEQRQRQEEEARRAAAASAAEAGIATTGTEDSDDALLKMTISQQEFGRTGLPDLSSMTEEEQIAYAMQMSLQGAEFGQAESADIDASSAMDTSEPAKEEDDYDVMQDPEFLQSVLENLPGVDPNNEAIRNAMGSLASQATKDGKKDKKEEDKK [PSMD4] | -0.808 | -1.22 | -0.0985 | 0.287 | 53.3 | 53.9
8 | MVLESVARIVKVQLPAYLKRLPVPESITGFARLTVSEWLRLLPFLGVLALLGYLAVRPFLPKKKQQKDSLINLKIQKENPKVVNEINIEDLCLTKAAYCRCWRSKTFPACDGSHNKHNELTGDNVGPLILKKKEV [CISD2] | -4.5 | -5.22 | 0.0164 | 0.0551 | 54.2 | 54.7
9 | MVLIKEFRVVLPCSVQEYQVGQLYSVAEASKNETGGGEGIEVLKNEPYEKDGEKGQYTHKIYHLKSKVPAFVRMIAPEGSLVFHEKAWNAYPYCRTIVTNEYMKDDFFIKIETWHKPDLGTLENVHGLDPNTWKTVEIVHIDIADRSQVEPADYKADEDPALFQSVKTKRGPLGPNWKKELANSPDCPQMCAYKLVTIKFKWWGLQSKVENFIQKQEKRIFTNFHRQLFCWIDKWIDLTMEDIRRMEDETQKELETMRKRGSVRGTSAADV [PITPNB] | 2.34 | 2.14 | -0.0681 | 0.199 | 52.9 | 53.4
